Source: the supplement of paper PMC9112550, “Optimization of the antimicrobial peptide Bac7 by deep mutational scanning” (BMC Biology, 2022)

What follows are sequences tested on Escherichia coli TOP10 (assay: shrunken log2 fold change of peptide-encoding DNA abundance (4.5 h post-induction vs induction); higher = less antimicrobial activity (less host growth inhibition)). Conditions: time post-induction: 4.5 h; library: site-saturation at positions 5, 18, 19, 20.
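Note: peptides expressed intracellularly from a pBAD plasmid library in pooled LB shake-flask culture, induced with 0.3% L-arabinose, DNA abundance read by NGS, three biological replicates, DESeq2 with apeglm shrinkage.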

First: RRIRHRPPRLPRPRPRPKAMPRP
Second: RRIRMRPPRLPRPRPRPRAIPRP
The “shrunken log2 fold change” value of the first is lower: -0.0705 for the first, 0.52 for the second.

Compared with RRIRCRPPRLPRPRPRPEHNPRP, RRIRGRPPRLPRPRPRPAESPRP is higher in “shrunken log2 fold change” value: -0.377 for the first, 0.764 for the second.

First: RRIRVRPPRLPRPRPRPKIQPRP
Second: RRIRSRPPRLPRPRPRPGLWPRP
The “shrunken log2 fold change” value of the first is lower: -0.0896 for the first, 0.266 for the second.

Going from RRIRNRPPRLPRPRPRPGMPPRP to RRIRPRPPRLPRPRPRPASAPRP, the “shrunken log2 fold change” value rises from -0.107 to 0.441.

Going from RRIRMRPPRLPRPRPRPRQNPRP to RRIRMRPPRLPRPRPRPIPPPRP, the “shrunken log2 fold change” value falls from 0.62 to 0.369.

RRIRMRPPRLPRPRPRPITCPRP and RRIRIRPPRLPRPRPRPIGSPRP are within 0.2 log units of each other in “shrunken log2 fold change” value: -0.0534 for the first, -0.0175 for the second.

RRIRLRPPRLPRPRPRPHGCPRP and RRIRPRPPRLPRPRPRPIAKPRP are within 0.2 log units of each other in “shrunken log2 fold change” value: -0.0225 for the first, 0.0454 for the second.

RRIRCRPPRLPRPRPRPCECPRP and RRIRYRPPRLPRPRPRPFDIPRP are within 0.2 log units of each other in “shrunken log2 fold change” value: -0.0911 for the first, 0.0167 for the second.

Compared with RRIRKRPPRLPRPRPRPNRSPRP, RRIRERPPRLPRPRPRPKYVPRP is lower in “shrunken log2 fold change” value: -0.0169 for the first, -0.475 for the second.

Going from RRIRSRPPRLPRPRPRPQHEPRP to RRIRARPPRLPRPRPRPPTIPRP, the “shrunken log2 fold change” value rises from -0.296 to 0.0349.

Going from RRIRVRPPRLPRPRPRPVPMPRP to RRIRVRPPRLPRPRPRPDIRPRP, the “shrunken log2 fold change” value falls from 0.0779 to -0.179.

Going from RRIRPRPPRLPRPRPRPYKRPRP to RRIRVRPPRLPRPRPRPETDPRP, the “shrunken log2 fold change” value rises from -0.345 to 0.023.

Going from RRIRYRPPRLPRPRPRPYQEPRP to RRIRFRPPRLPRPRPRPCRSPRP, the “shrunken log2 fold change” value rises from -0.00233 to 0.974.

RRIRNRPPRLPRPRPRPMCIPRP and RRIRYRPPRLPRPRPRPVNFPRP are within 0.2 log units of each other in “shrunken log2 fold change” value: -0.0106 for the first, 0.00408 for the second.

RRIRSRPPRLPRPRPRPSNLPRP and RRIRYRPPRLPRPRPRPNRGPRP are within 0.2 log units of each other in “shrunken log2 fold change” value: -0.193 for the first, -0.124 for the second.

RRIRDRPPRLPRPRPRPGHDPRP and RRIRGRPPRLPRPRPRPNQWPRP are within 0.2 log units of each other in “shrunken log2 fold change” value: 0.207 for the first, 0.259 for the second.

RRIRMRPPRLPRPRPRPIGQPRP and RRIRVRPPRLPRPRPRPRTSPRP are within 0.2 log units of each other in “shrunken log2 fold change” value: 0.00911 for the first, 0.0612 for the second.

RRIRHRPPRLPRPRPRPIGIPRP and RRIRYRPPRLPRPRPRPQQTPRP are within 0.2 log units of each other in “shrunken log2 fold change” value: 0.0295 for the first, 0.019 for the second.

First: RRIRPRPPRLPRPRPRPRFVPRP
Second: RRIRNRPPRLPRPRPRPTGQPRP
The “shrunken log2 fold change” value of the first is higher: 0.109 for the first, -0.115 for the second.

RRIRTRPPRLPRPRPRPCEYPRP and RRIRRRPPRLPRPRPRPCKFPRP are within 0.2 log units of each other in “shrunken log2 fold change” value: -0.0254 for the first, 0.123 for the second.

Going from RRIRVRPPRLPRPRPRPQSHPRP to RRIRQRPPRLPRPRPRPLDTPRP, the “shrunken log2 fold change” value rises from -0.613 to -0.144.

RRIRWRPPRLPRPRPRPLWGPRP and RRIRHRPPRLPRPRPRPNDLPRP are within 0.2 log units of each other in “shrunken log2 fold change” value: 0.08 for the first, 0.0529 for the second.

First: RRIRWRPPRLPRPRPRPFKAPRP
Second: RRIRGRPPRLPRPRPRPLPWPRP
The “shrunken log2 fold change” value of the first is lower: 0.0343 for the first, 0.702 for the second.

First: RRIRNRPPRLPRPRPRPPILPRP
Second: RRIRPRPPRLPRPRPRPQCGPRP
The “shrunken log2 fold change” value of the first is higher: 0.144 for the first, -0.0915 for the second.

Going from RRIRPRPPRLPRPRPRPQFDPRP to RRIRARPPRLPRPRPRPQTFPRP, the “shrunken log2 fold change” value falls from -0.0475 to -0.528.

Going from RRIRRRPPRLPRPRPRPDPYPRP to RRIRIRPPRLPRPRPRPQVMPRP, the “shrunken log2 fold change” value falls from 0.175 to -0.604.

RRIRVRPPRLPRPRPRPFTDPRP and RRIRRRPPRLPRPRPRPKVRPRP are within 0.2 log units of each other in “shrunken log2 fold change” value: 0.0809 for the first, 0.111 for the second.

First: RRIRSRPPRLPRPRPRPTPSPRP
Second: RRIRVRPPRLPRPRPRPIQIPRP
The “shrunken log2 fold change” value of the first is higher: 0.376 for the first, -1.33 for the second.

Compared with RRIRKRPPRLPRPRPRPRPSPRP, RRIRGRPPRLPRPRPRPMCLPRP is lower in “shrunken log2 fold change” value: 0.585 for the first, 0.0563 for the second.

RRIRRRPPRLPRPRPRPMWFPRP and RRIRDRPPRLPRPRPRPKGTPRP are within 0.2 log units of each other in “shrunken log2 fold change” value: -0.0232 for the first, -0.0298 for the second.
